Residue numbers refer to the chain shown, from its start. Names and notes keep the numbering of the source.
Molecular target: T1, R5 peptide
T1 chain: SSKKSGSYSGSKGSKRRIL

B1: BRSK2 (protein)
chain: MWPPDPDPDPDPEPAGGSRPGPAVPGLRALLPARAFLCSLKGRLLLAESGLSFITFICYVASSASAFLTAPLLEFLLALYFLFADAMQLNDKWQGLCWPMMDFLRCVTAALIYFAISITAIAKYSDGASKAAGVFGFFATIVFATDFYLIFNDVAKFLKQGDSADETTAHKTEEENSDSDSD
- enzymatic modification of R5 (Phosphorylation): resulted in no modifications

B2: deoxyhypusine hydroxulase (DOHH) (protein)
chain: MVTEQEVDAIGQTLVDPKQPLQARFRALFTLRGLGGPGAIAWISQAFDDDSALLKHELAYCLGQMQDARAIPMLVDVLQDTRQEPMVRHEAGEALGAIGDPEVLEILKQYSSDPVIEVAETCQLAVRRLEWLQQHGGEPAAGPYLSVDPAPPAEERDVGRLREALLDESRPLFERYRAMFALRNAGGEEAALALAEGLHCGSALFRHEVGYVLGQLQHEAAVPQLAAALARCTENPMVRHECAEALGAIARPACLAALQAHADDPERVVRESCEVALDMYEHETGRAFQYADGLEQLRGAPS
- hypusination of R5 (LC-MS time course): A time course showing the conversion of two lysine to hypusine residues was determined by LC-MS

B3: GALNT1 (protein)
chain: GLPAGDVLEPVQKPHEGPGEMGKPVVIPKEDQEKMKEMFKINQFNLMASEMIALNRSLPDVRLEGCKTKVYPDNLPTTSVVIVFHNEAWSTLLRTVHSVINRSPRHMIEEIVLVDDASERDFLKRPLESYVKKLKVPVHVIRMEQRSGLIRARLKGAAVSKGQVITFLDAHCECTVGWLEPLLARIKHDRRTVVCPIIDVISDDTFEYMAGSDMTYGGFNWKLNFRWYPVPQREMDRRKGDRTLPVRTPTMAGGLFSIDRDYFQEIGTYDAGMDIWGGENLEISFRIWQCGGTLEIVTCSHVGHVFRKATPYTFPGGTGQIINKNNRRLAEVWMDEFKNFFYIISPGVTKVDYGDISSRVGLRHKLQCKPFSWYLENIYPDSQIPRHYFSLGEIRNVETNQCLDNMARKENEKVGIFNCHGMGGNQVFSYTANKEIRTDDLCLDVSKLNGPVTMLKCHHLKGNQLWEYDPVKLTLQHVNSNQCLDKATEEDSQVPSIRDCNGSRSQQWLLRNVTLPEIF
- enzymatic modification of R5 (Glycosylation): resulted in no modifications

B4: POMT1 (protein)
chain: MWGFLKRPVVVTADINLSLVALTGMGLLSRLWRLTYPRAVVFDEVYYGQYISFYMKQIFFLDDSGPPFGHMVLALGGYLGGFDGNFLWNRIGAEYSSNVPVWSLRLLPALAGALSVPMAYQIVLELHFSHCAAMGAALLMLIENALITQSRLMLLESVLIFFNLLAVLSYLKFFNCQKHSPFSLSWWFWLTLTGVACSCAVGIKYMGVFTYVLVLGVAAVHAWHLLGDQTLSNVGADVQCCMRPACMGQMQMSQGVCVFCHLLARAVALLVIPVVLYLLFFYVHLILVFRSGPHDQIMSSAFQASLEGGLARITQGQPLEVAFGSQVTLRNVFGKPVPCWLHSHQDTYPMIYENGRGSSHQQQVTCYPFKDVNNWWIVKDPRRHQLVVSSPPRPVRHGDMVQLVHGMTTRSLNTHDVAAPLSPHSQEVSCYIDYNISMPAQNLWRLEIVNRGSDTDVWKTILSEVRFVHVNTSAVLKLSGAHLPDWGYRQLEIVGEKLSRGYHGSTVWNVEEHRYGASQEQRERERELHSPAQVDVSRNLSFMARFSELQWRMLALRSDDSEHKYSSSPLEWVTLDTNIAYWLHPRTSAQIHLLGNIVIWVSGSLALAIYALLSLWYLLRRRRNVHDLPQDAWLRWVLAGALCAGGWAVNYLPFFLMEKTLFLYHYLPALTFQILLLPVVLQHISDHLCRSQLQRSIFSALVVAWYSSACHVSNTLRPLTYGDKSLSPHELKALRWKDSWDILIRKH
- enzymatic modification of R5 (Glycosylation): resulted in no modifications

B5: LplA (protein)
chain: STLRLLISDSYDPWFNLAVEECIFRQMPATQRVLFLWRNADTVVIGRAQNPWKECNTRRMEEDNVRLARRSSGGGAVFHDLGNTCFTFMAGKPEYDKTISTSIVLNALNALGVSAEASGRNDLVVKTVEGDRKVSGSAYRETKDRGFHHGTLLLNADLSRLANYLNPDKKKLAAKGITSVRSRVTNLTELLPGITHEQVCEAITEAFFAHYGERVEAEIISPNKTPDLPNFAETFARQSSWEWNFGQAPAFSHLLDERFTWGGVELHFDVEKGHITRAQVFTDSLNPAPLEALAGRLQGCLYRADMLQQECEALLVDFPEQEKELRELSAWMAGAVR
- enzymatic modification of R5 (Lipidation): resulted in no modifications

B6: OGT (protein)
chain: ASSVGNVADSTEPTKRMLSFQGLAELAHREYQAGDFEAAERHCMQLWRQEPDNTGVLLLLSSIHFQCRRLDRSAHFSTLAIKQNPLLAEAYSNLGNVYKERGQLQEAIEHYRHALRLKPDFIDGYINLAAALVAAGDMEGAVQAYVSALQYNPDLYCVRSDLGNLLKALGRLEEAKACYLKAIETQPNFAVAWSNLGCVFNAQGEIWLAIHHFEKAVTLDPNFLDAYINLGNVLKEARIFDRAVAAYLRALSLSPNHAVVHGNLACVYYEQGLIDLAIDTYRRAIELQPHFPDAYCNLANALKEKGSVAEAEDCYNTALRLCPTHADSLNNLANIKREQGNIEEAVRLYRKALEVFPEFAAAHSNLASVLQQQGKLQEALMHYKEAIRISPTFADAYSNMGNTLKEMQDVQGALQCYTRAIQINPAFADAHSNLASIHKDSGNIPEAIASYRTALKLKPDFPDAYCNLAHCLQIVCDWTDYDERMKKLVSIVADQLEKNRLPSVHPHHSMLYPLSHGFRKAIAERHGNLCLDKINVLHKPPYEHPKDLKLSDGRLRVGYVSSDFGNHPTSHLMQSIPGMHNPDKFEVFCYALSPDDGTNFRVKVMAEANHFIDLSQIPCNGKAADRIHQDGIHILVNMNGYTKGARNELFALRPAPIQAMWLGYPGTSGALFMDYIITDQETSPAEVAEQYSEKLAYMPHTFFIGDHANMFPHLKKKAVIDFKSNGHIYDNRIVLNGIDLKAFLDSLPDVKIVKMKCPDGGDNADSSNTALNMPVIPMNTIAEAVIEMINRGQIQITINGFSISNGLATTQINNKAATGEEVPRTIIVTTRSQYGLPEDAIVYCNFNQLYKIDPSTLQMWANILKRVPNSVLWLLRFPAVGEPNIQQYAQNMGLPQNRIIFSPVAPKEEHVRRGQLADVCLDTPLCNGHTTGMDVLWAGTPMVTMPGETLASRVAASQLTCLGCLELIAKNRQEYEDIAVKLGTDLEYLKKVRGKVWKQRISSPLFNTKQYTMELERLYLQMWEHYAAGNKPDHMIKPVEVTESA
- enzymatic modification of R5 (Glycosylation): resulted in no modifications

B7: NMT2 (protein)
chain: MAEDSESAASQQSLELDDQDTCGIDGDNEEETEHAKGSPGGYLGAKKKKKKQKRKKEKPNSGGTKSDSASDSQEIKIQQPSKNPSVPMQKLQDIQRAMELLSACQGPARNIDEAAKHRYQFWDTQPVPKLDEVITSHGAIEPDKDNVRQEPYSLPQGFMWDTLDLSDAEVLKELYTLLNENYVEDDDNMFRFDYSPEFLLWALRPPGWLLQWHCGVRVSSNKKLVGFISAIPANIRIYDSVKKMVEINFLCVHKKLRSKRVAPVLIREITRRVNLEGIFQAVYTAGVVLPKPIATCRYWHRSLNPRKLVEVKFSHLSRNMTLQRTMKLYRLPDVTKTSGLRPMEPKDIKSVRELINTYLKQFHLAPVMDEEEVAHWFLPREHIIDTFVVESPNGKLTDFLSFYTLPSTVMHHPAHKSLKAAYSFYNIHTETPLLDLMSDALILAKSKGFDVFNALDLMENKTFLEKLKFGIGDGNLQYYLYNWRCPGTDSEKVGLVLQ
- enzymatic modification of R5 (Lipidation): resulted in no modifications

B8: LipB (protein)
chain: MYQDKILVRQLGLQPYEPISQAMHEFTDTRDDSTLDEIWLVEHYPVFTQGQAGKAEHILMPGDIPVIQSDRGGQVTYHGPGQQVMYVLLNLKRRKLGVRELVTLLEQTVVNTLAELGIEAHPRADAPGVYVGEKKICSLGLRIRRGCSFHGLALNVNMDLSPFLRINPCGYAGMEMAKISQWKPEATTNNIAPRLLENILALLNNPDFEYITA
- enzymatic modification of R5 (Lipidation): resulted in no modifications

B9: deoxyhypusine synthase (DHPS) (protein)
chain: MEGSLEREAPAGALAAVLKHSSTLPPESTQVRGYDFNRGVNYRALLEAFGTTGFQATNFGRAVQQVNAMIEKKLEPLSQDEDQHADLTQSRRPLTSCTIFLGYTSNLISSGIRETIRYLVQHNMVDVLVTTAGGVEEDLIKCLAPTYLGEFSLRGKELRENGINRIGNLLVPNENYCKFEDWLMPILDQMVMEQNTEGVKWTPSKMIARLGKEINNPESVYYWAQKNHIPVFSPALTDGSLGDMIFFHSYKNPGLVLDIVEDLRLINTQAIFAKCTGMIILGGGVVKHHIANANLMRNGADYAVYINTAQEFDGSDSGARPDEAVSWGKIRVDAQPVKVYADASLVFPLLVAETFAQKMDAFMHEKNED
- hypusination of R5 (LC-MS time course): A time course showing the conversion of two lysine to hypusine residues was determined by LC-MS

B10: vopS (protein)
chain: GKEYTINAATQEFTRANPTSGAVARFFEATGKLFREGSTQSVAKAITKAVFDNEQGQAQRLQTSSSVEHGQMLFKDANLKTPSDVLNAFAKLDSKMVKSHAAELSQLAERAMTEVMLETDSGKNLKALIGDDAVKSLAVRVVKDYGGGVAAAQKNPEVRINQMQAVFDMEVMHLKAAQRHIEGLASTDLNQGVYAEGLPEDAFNKAGVTNNVERAAAWIINASNSKGNDAENITSLLKEYATNGKDLLNMDNLKELHARLVPNVERDYRGPNISGGTLPSSIGGEGMLKQHIEGFLKENPVADKDLGKHLFAGVIGYHGFTDGNGRMGRMLYAIAELRNDSFNPLAMNAENSLHGIK
- enzymatic modification of R5 (Adenylylation): resulted in no modifications

B11: Thermospermine synthase ACL5 (protein)
chain: MGEAVEVMFGNGFPEIHKATSPTQTLHSNQQDCHWYEETIDDDLKWSFALNSVLHQGTSEYQDIALLDTKRFGKVLVIDGKMQSAERDEFIYHECLIHPALLFHPNPKTVFIMGGGEGSAAREILKHTTIEKVVMCDIDQEVVDFCRRFLTVNSDAFCNKKLELVIKDAKAELEKREEKFDIIVGDLADPVEGGPCYQLYTKSFYQNILKPKLSPNGIFVTQAGPAGIFTHKEVFTSIYNTMKQVFKYVKAYTAHVPSFADTWGWVMASDHEFDVEVDEMDRRIEERVNGELMYLNAPSFVSAATLNKTISLALEKETEVYSEENARFIHGHGVAYRHI
- propylamination of R5 (LC-MS time course): the incorporation of one thermospermine molecule into R5

B12: lysine methyltransferase SETD7 (SET7/9) (protein)
chain: MDSDDEMVEEAVEGHLDDDGLPHGFCTVTYSSTDRFEGNFVHGEKNGRGKFFFFDGSTLEGYYVDDALQGQGVYTYEDGGVLQGTYVDGELNGPAQEYDTDGRLIFKGQYKDNIRHGVCWIYYPDGGSLVGEVNEDGEMTGEKIAYVYPDERTALYGKFIDGEMIEGKLATLMSTEEGRPHFELMPGNSVYHFDKSTSSCISTNALLPDPYESERVYVAESLISSAGEGLFSKVAVGPNTVMSFYNGVRITHQEVDSRDWALNGNTLSLDEETVIDVPEPYNHVSKYCASLGHKANHSFTPNCIYDMFVHPRFGPIKCIRTLRAVEADEELTVAYGYDHSPPGKSGPEAPEWYQVELKAFQATQQK
- methylation of R5 (LC-MS time course): A time course showing the incorporation of zero to 16 methyl groups into R5

B13: SET7/9 Y305F (protein)
chain: B12 chain with Y305F
- methylation of R5 (LC-MS time course): A time course showing the incorporation of zero to 16 methyl groups into R5

From patent US20180244725
